Assay results from article PMC12365351.

Tests used:
[1] = molecular target: rNcSAG1* (recombinant Neospora caninum SAG1, residues 31-317, Strep-tag removed by enterokinase) (Neospora caninum); assay: SEC; preparative SEC of the proteins after removal of the Strep-tag with enterokinase, 0.1 M Tris-Cl pH 8.0, 0.15 M NaCl, 1 mM EDTA; unique peak slightly shifted towards smaller size; self-association (dimer)
[2] = molecular target: rNcSAG1-ST (recombinant Neospora caninum SAG1, residues 31-317, with C-terminal Twin-Strep-tag) (Neospora caninum); assay: SEC; analytical SEC of the re-injected main peak, Superdex 200 Increase 10/300 GL, 0.1 M Tris-Cl pH 8.0, 0.15 M NaCl, 1 mM EDTA, 0.5 ml/min; MW estimated from calibration with LMW and HMW kits; self-association (dimer)
[3] = molecular target: rNcSRS2* (recombinant Neospora caninum SRS2, residues 54-401, Strep-tag removed by enterokinase) (Neospora caninum); assay: SEC; preparative SEC of the proteins after removal of the Strep-tag with enterokinase, 0.1 M Tris-Cl pH 8.0, 0.15 M NaCl, 1 mM EDTA; unique peak slightly shifted towards smaller size; self-association (dimer)
[4] = molecular target: rNcSRS2-ST (recombinant Neospora caninum SRS2, residues 54-401, with C-terminal Twin-Strep-tag) (Neospora caninum); assay: SEC; analytical SEC of the re-injected main peak, Superdex 200 Increase 10/300 GL, 0.1 M Tris-Cl pH 8.0, 0.15 M NaCl, 1 mM EDTA, 0.5 ml/min; MW estimated from calibration with LMW and HMW kits; self-association (dimer)

“rNcSAG1* (recombinant Neospora caninum SAG1, residues 31-317, Strep-tag removed by enterokinase) (domain or fragment)” was tested, and the stoichiometry N [1] was 2.

With “rNcSAG1-ST (recombinant Neospora caninum SAG1, residues 31-317, with C-terminal Twin-Strep-tag) (domain or fragment)” the stoichiometry N [2] was 2.

With “rNcSRS2* (recombinant Neospora caninum SRS2, residues 54-401, Strep-tag removed by enterokinase) (domain or fragment)” the stoichiometry N [3] was 2.

In the case of “rNcSRS2-ST (recombinant Neospora caninum SRS2, residues 54-401, with C-terminal Twin-Strep-tag) (domain or fragment)”, the stoichiometry N [4] is reported as 2.
